These results are taken from doi:10.1101/2020.01.09.899195 (bioRxiv, 2020).

One assay has as its target T1, MinD(R3E) (Escherichia coli, UniProt P0AEZ3 1-270, R3E).
T1 sequence (looked up): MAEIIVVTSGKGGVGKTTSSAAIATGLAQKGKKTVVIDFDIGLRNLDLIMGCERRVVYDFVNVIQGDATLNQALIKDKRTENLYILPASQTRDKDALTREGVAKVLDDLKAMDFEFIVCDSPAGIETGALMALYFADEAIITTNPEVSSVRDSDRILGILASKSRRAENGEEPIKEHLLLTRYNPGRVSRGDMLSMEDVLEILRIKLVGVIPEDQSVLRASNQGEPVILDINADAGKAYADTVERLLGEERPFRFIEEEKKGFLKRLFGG
The assay can be described thus: 90° light scatter.

In another assay the target is ClpX (Escherichia coli, UniProt P0A6H1 1-424). The assay can be described thus: negative-stain transmission electron microscopy.

B1: MinC (natural protein, Escherichia coli, UniProt P18196 1-231, looked up)
chain: MSNTPIELKGSSFTLSVVHLHEAEPKVIHQALEDKIAQAPAFLKHAPVVLNVSALEDPVNWSAMHKAVSATGLRVIGVSGCKDAQLKAEIEKMGLPILTEGKEKAPRPAPTPQAPAQNTTPVTKTRLIDTPVRSGQRIYAPQCDLIVTSHVSAGAELIADGNIHVYGMMRGRALAGASGDRETQIFCTNLMAELVSIAGEYWLSDQIPAEFYGKAARLQLVENALTVQPLN
Turning to B1, the binding result with MinD(R3E) is given as “binds”.

B2: ClpP (enzyme)
chain: not shown
Regarding B2, the binding result with ClpX was “binds”.
